In patent publication US5846747A, “Method for detecting glucagon-like peptide-1 antagonists and agonists” (Novo Nordisk A/S, priority 1993, dated 1998):

Molecular target: T1, rat GLP-1 receptor (Rattus norvegicus, UniProt P32301)
T1 construct: expressed in transfected cells; host or cells: COS cells
T1 sequence (P32301 22-463): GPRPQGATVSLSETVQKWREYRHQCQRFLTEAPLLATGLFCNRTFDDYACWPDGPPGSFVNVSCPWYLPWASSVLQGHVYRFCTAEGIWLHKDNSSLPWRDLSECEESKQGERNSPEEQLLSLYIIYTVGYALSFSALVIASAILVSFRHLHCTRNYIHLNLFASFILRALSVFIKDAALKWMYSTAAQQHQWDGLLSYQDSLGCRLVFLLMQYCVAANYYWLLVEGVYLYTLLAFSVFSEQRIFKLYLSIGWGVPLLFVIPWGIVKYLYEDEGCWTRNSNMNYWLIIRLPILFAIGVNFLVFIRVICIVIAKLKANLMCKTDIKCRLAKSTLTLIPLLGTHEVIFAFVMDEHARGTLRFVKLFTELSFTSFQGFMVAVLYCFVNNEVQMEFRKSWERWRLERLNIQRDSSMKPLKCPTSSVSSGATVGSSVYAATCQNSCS
Assay: Displacement of 125I-GLP-1 binding to COS cells transfected with the rat GLP-1 receptor cDNA
Conditions: 20 pM 125I-GLP-1, increasing concentrations of cold peptide

displacement of GLP-1 binding (in words)	Substance
did not displace binding	gastric inhibitory peptide [GIP]
did not displace binding	secreting: peptide hormone of related structure (probably secretin)
did not displace binding	vasoactive intestinal peptide [VIP]
